Data reported in the nanobody polyreactivity screen of Harvey et al. (2022).

Assay: yeast display, Sf9 membrane polyspecificity reagent, FACS + sequencing; frameworks hold sequencing errors
Summary of the method: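 Galactose-induced (36–48 hours) yeast carrying a synthetic nanobody display library were exposed to 10% biotinylated, detergent-solubilized Sf9 membrane reagent at 4 °C for 1 hour. FACS followed streptavidin microbead enrichment, using low and high (top ~1%) gates for expression (anti-HA) and reagent binding (streptavidin). Colony PCR, MiSeq 2 × 250 sequencing and CDR-length filtering followed. Labels for polyreactivity reflect the gate of origin.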

Row | Sequence | polyreactivity (PSR sort gate)
1 | QVQLVDSGGGLVQAGGSLRLSCPASGFIFAKYAKGWSRQAPGKERELGAAITSGGSTNYADSVTGRFTISRDNAKNTVYLQMHSLKPEDTAVYYCNRGFDWWYRYRHYDYWGQGTQVTVSS | low polyreactivity
2 | QVQLVDSGGGLVQAGGSLRLSCPASGFNFYRNAMGSYRQAPGKERELVAAISGSGGRTYYADSVKGRFTISRDNAKNTVYLQMNSLKPEDTAVYYCATDYAYSPYRYWTRYDYWGQGTQVTVSS | high polyreactivity
3 | QVQLVDSGGGLVQAGGSLRLSCPASGRTFYVYDMGWYRQSPGKERELVAVISSSGSTNYADSVKGRFTISRDNAKNTVYLQMNSLKPEDTAVYYCNRRRWYFFSLDFWGEGTQVTVSS | high polyreactivity
4 | QVQLVDSGGGLVQAGGSLRLSCPASGSTFSRYAMGWYRQAPGKERELVAAISRSGGTTYYADSVKGRFTISRDNAKNTVYLQMNSLKPEDTAVYYCNDRGRYEYGYWGQGTQVTVSS | high polyreactivity
5 | QVQLVDSGGGLVQAGGSLRLSSAASGRTLVNYAMGCYRQAPGKERELVAAISYSGGSTYYADSVKGRFTISRDNAKNTVYLQMNSLKPEDTAVYYCAAYYYQRYDYWGQGTQVTVSS | high polyreactivity
6 | QVQLVDSGGGLVQAGGSLRLTCAASGIIFRLYGMGWYRQAPGKEREFVATITWRGGRTNYADSVKGRFTISRDNAKNTVYLQMNSLKPEDTAVYYCAKVVRYARSNEYDSWGQGTQVTVSS | low polyreactivity
7 | QVQLVDSGGGLVQAGGSLRLTFAASGSIFAWYAMGLYRQEPGKERELVAVITRGGSTNYADSVKGRFTISRDNAKNTVYLPMISQKPEDTAVYYCAAGSYYSWYPFDYWGQGTQLTVSS | low polyreactivity
8 | QVQLVDSGGGLVQAGGTLRLSCASSGSTFYYYAMGWYRQAPGKERELVAGITSGGSTNYADSVKGRFTISRDNAKNTVKLLMNSLKPEDTADYYCNARYRKYRYRYDYWGQGTQVSVSS | low polyreactivity
9 | QVQLVDSGGGLVQAGGTLRLSCSASGRTFPTYAMGWYRQAPGKEREVVAAISSSGCSTYYADSVKGRFTISRDNAKNSVYLQMHSLKPEDTAVYYCAALRDRNLNPGYDYWGQGTQLTVSS | low polyreactivity
10 | QVQLVDSGGGLVQARGTLRLSCAASGSTFRVYAMGWYRQAPGKEMELVAAISSSGGITYYADSVKGRFPISRDNAKNSVYLQMNSLKPEDTEVYYCAKGTVIHVLYDYWGQGTQVTVSS | low polyreactivity
11 | QVQLVDSGGGLYQAGGSLSLTCAASGSIFDFNAMGWYRQAPGKERELVAAISGSGARTYYADSVKGRFTIARDNAKHTVYLQLNSLKPEDTAVYLCARPYVYGYDSWGQGTQVTFSS | high polyreactivity
12 | QVQLVDSGGRLFQAGGSLRLSCAAYGFSFSYYDMGSYRQAPGKERELVAAIFSNGRTYYADSVKGRFTISRDNAKNTVYLQMNSLKPVDTAVYYCAAAYVGYYYSRGFDYWGQGTQVTVSS | high polyreactivity
13 | QVQLVDSGRGFVQAGGSLRLSCAASGSTYPGNEMGRSRQAPGKESELVAAIRWSGGSTYYADSVKGRFTISRDNAKNNVYLQMNSLKPEDTAVYYCAADYLIPDTYLFQAYVGFEYWGQGTLVTVSS | low polyreactivity
14 | QVQLVDSGVGLVQAGGSLRLSCAASGNTFSSYTMGWYIQAPGKERELVAGISRTGTSTYYADSVKGRFTISRDNAKNSVYLQMNSLKPEDTAVYYCAARTGWWYYWGQGTQVSVSS | high polyreactivity
15 | QVQLVDSGVGLVQAGGSLRLSCAASGSIFYQNAMGWYRQAHGSERELVAAITSDGSTYYADSVKGRFTISRDNAKNTVYLQMNSLKPEDTAVYYCPAEYYGHRYDYCGQGTQVTVSS | low polyreactivity
16 | QVQLVDSRGGLVQAGGSLRLSCAASGIIFFDYTMGWYSQAPGKERELVASITRGGSTYADSVKGRFTISRDNAMNSVYLQMNSLKPEDTAVYYCAATIVDYDAYGYWGQGTQVTVSS | low polyreactivity
17 | QVQLVDSRGGLVQAGGSLRLSCAASGLTFGPYAMGRYRQAPGKEREFVAAITWRGGRTNYADSVKGRFTMSRDNAKNTVYLQMNSLKPEDTAVYYCNAVISPHQWIRGGDSWGQGTQVTVSS | low polyreactivity
18 | QVQLVDSRGGLVQAGGSLRLSCSASGSIFPANVMGWYRQAPGKERELVASINSGDDTNYADSVKGRFTISRDNAKNTVYLQMNSLKPEDTAVYYCATGDWYPYGDYIYDYWGQGTQVTVSS | low polyreactivity
19 | QVQLVDSVGGLVQAGGSLRISCAASGSIFGFYAMGWYRQSPGKERELVAAISQRGGNTYYADSVKRRFTISRDNAKNTVYLQMNSLKPEDTAFYFCASDKHPYKRHWYYTYDYWGLGTQVTVSS | high polyreactivity
20 | QVQLVDSWGGLVQAGGSLRLSCAASGSIFTLYDMGWYRQAPGKERELVAAIDWSGGSTRYADSVKGRFTISRDNAKNTVYLQMNSLKPEDTAVYYCAKDLGGRYGRYRYDYWGQGTQVTVSS | high polyreactivity
21 | QVQLVDTGGGLVQAGGILRIRCAASGRIFHGNSMVCYRQAPGKERELVAAITWGGTRTYYSDSVKGRFTISRDNAKNTVYLQMNSLKPEDTAVYYCATDYGYTDRVTSGFDYWGQGNQVTVSS | low polyreactivity
22 | QVQLVDTGGGLVQAGGSLRLSCAASGLTIYGNAMGWSRQAPGKERELVAAISSSGGTTYYADSVKGRFTISRDNSKNTVYLQMNSLKPEDTAVYYCAARPSGGYESTRTRDYWGQGTQVTLSS | low polyreactivity
